Experimental data: the supplement of paper PMC9170038

Test system: MS2 coat protein
Assay: apparent KD of MS2 coat protein; designed switch direction (-1 OFF switch, 1 ON switch): -1; higher = weaker reporter binding
Outline: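 RNA switches sharing common flanks were transcribed by stalled E. coli RNA polymerase on Illumina chips. A doubling series of SNAP-549-labelled MS2 coat protein, from 0.7 or 1.5 nM to 3 µM, was applied in Tris-HCl pH 7.5 buffer with KCl, MgCl2, BSA, DTT, tRNA and Tween-20. Each step lasted 0.8–1.5 h at the bottom of the series and 10–20 min at the top. Normalised cluster fluorescence was curve-fitted, giving apparent KD as the per-design median over clusters.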

[1] = Eterna round: R95, input ligand: FMN 200 uM
[2] = Eterna round: R95, input ligand: microRNA oligo, concentration not stated
[3] = Eterna round: R95, input ligand: none

GAGGUUUCAGGAUAUACAUGAGGAUCACCCAUGUUAUUAGUGUGGAUUGGUGUCCUGCGUAGAAGGGAGUAUAA [Eternabot (L2) Solution 93] (Eterna round: R97, puzzle: Exclusion 3)
apparent KD of MS2 coat protein (input ligand: FMN 200 uM): 65.7 nM | apparent KD of MS2 coat protein (input ligand: none): 57.2 nM

GAGUAGAGAGGAUAUGCAAUGAUCAUCGUACGAUGAGGCUGACAUGAGGAUCACCCAUGUAGAAGGCUCUGAUC [EX2 #19] (Eterna round: R97, puzzle: Exclusion 2)
apparent KD of MS2 coat protein (input ligand: FMN 200 uM): 22.1 nM | apparent KD of MS2 coat protein (input ligand: none): 30.7 nM

GAGUAGGGAGGAUAUGCAGAAUGACUCGUAAGUAAGAUAGGACAUGAGGAUCACCCAUGUAGAAGGCUCUGAUG [jun14#1] (Eterna round: R97, puzzle: Exclusion 2)
apparent KD of MS2 coat protein (input ligand: FMN 200 uM): 46.3 nM | apparent KD of MS2 coat protein (input ligand: none): 42 nM

GAGUGACAUGAGGAUCACCCAUGUAAGGAUAUACGGUUGGUAGAGAGAGGGAGAAAGGGUAGAAGGUACGAAGG [JR_Exclu1_Sub053] (puzzle: Exclusion 1)
apparent KD of MS2 coat protein [1]: 45.5 nM | apparent KD of MS2 coat protein [2]: 44.1 nM | apparent KD of MS2 coat protein [3]: 101 nM

GAGUGACAUGAGGAUCACCCAUGUAAGGAUAUACGGUUGGUAGAGAGAGGGCUAAAGGGUAGAAGGUACGAAGG [JR_Exclu1_Sub055] (puzzle: Exclusion 1)
apparent KD of MS2 coat protein [2]: 63.1 nM

GAGUGACAUGAGGAUCACCCAUGUGAGGAUAUCGGACGGACCAAAUUAACAAUAAAAGCGAGAAGGCACAUCGG [Exclusion 1 V12] (puzzle: Exclusion 1)
apparent KD of MS2 coat protein [1]: 64.7 nM | apparent KD of MS2 coat protein [2]: 57.6 nM | apparent KD of MS2 coat protein [3]: 66.5 nM

GAGUGACAUGAGGAUCACCCAUGUGAGGAUAUCGGACGGACCAAAUUAACAAUAUUUGCGAGAAGGCACAUCGG [Exclusion 1 V17] (puzzle: Exclusion 1)
apparent KD of MS2 coat protein [2]: 82.2 nM

GAGUGACAUGAGGAUCACCCAUGUGAGGAUAUCGGACGGACCUUGUUGGCUUCCGCCGCGAGAAGGCACAUCGG [Exclusion 1 V26] (puzzle: Exclusion 1)
apparent KD of MS2 coat protein [2]: 87.5 nM

GAGUGCCGAGGAUAUACAAAUAUCCGCUAAUUAAUGCGAAAACAUGAGGAUCACCCAUGUAGAAGGCUGCACUC [AK-MS2ROC-r4-exclusion2-3] (Eterna round: R97, puzzle: Exclusion 2)
apparent KD of MS2 coat protein (input ligand: FMN 200 uM): 13.9 nM | apparent KD of MS2 coat protein (input ligand: none): 9.44 nM

GAGUGCUGAGGAUAUACAUGAGGAUCACCCAUGUGCUUCAGCUAGGAGACUAGCAUCGGUAGAAGGCAGUACUC [Mod of lroppy 18 - Jieux - Exclusion 3] (Eterna round: R97, puzzle: Exclusion 3)
apparent KD of MS2 coat protein (input ligand: FMN 200 uM): 60.1 nM | apparent KD of MS2 coat protein (input ligand: none): 17.2 nM

GAGUUAACGUGAGGAAUAUACAUGAGGAUCACCCAUGUUAACAAAUAUAUUGCUCGUCUUAUAACAACAAUUAACUC [Alarm 7 - Jieux - Sensor, turn-off variant 1] (Eterna round: R97, puzzle: Sensor, turn-off variant 1)
apparent KD of MS2 coat protein (input ligand: FMN 200 uM): 22.9 nM | apparent KD of MS2 coat protein (input ligand: none): 22.8 nM

GAGUUACAUGAGGAUCACCCAUGUGAGGAUAUGAGUCAGUCACGGUGACGUGGCUGACUCAGAAGGCACUAUGG [Mat - Exclusion 1 - JL Mod - D43] (Eterna round: R97, puzzle: Exclusion 1)
apparent KD of MS2 coat protein (input ligand: FMN 200 uM): 52.8 nM | apparent KD of MS2 coat protein (input ligand: none): 233 nM

GAGUUAGCGUGAGGAAUAUACAUGAGGAUCACCCAUGUUAACAAAUAUAUUGCUCGUCUUAUAACAACAAUUAACUC [Alarm 8 - Jieux - Sensor, turn-off variant 1] (Eterna round: R97, puzzle: Sensor, turn-off variant 1)
apparent KD of MS2 coat protein (input ligand: FMN 200 uM): 14.9 nM | apparent KD of MS2 coat protein (input ligand: none): 16.5 nM

GAGUUAGCGUGAGGAAUAUACAUGAGGAUCACCCAUGUUAGCUAAUAUAUUGCUCGUCUUAUAACAACAAUUAACUG [Mod JX-Electric-eye] (Eterna round: R97, puzzle: Sensor, turn-off variant 1)
apparent KD of MS2 coat protein (input ligand: FMN 200 uM): 14.2 nM | apparent KD of MS2 coat protein (input ligand: none): 15.9 nM

GAGUUAGCGUGAGGAAUAUACAUGAGGAUCACCCAUGUUGGCUAAUAUAUUGCUCGUCUUAUAACAACAAUUAACUG [Mod-hoo-honey#a] (Eterna round: R97, puzzle: Sensor, turn-off variant 1)
apparent KD of MS2 coat protein (input ligand: FMN 200 uM): 16 nM | apparent KD of MS2 coat protein (input ligand: none): 16.4 nM

GAUAAGCUAGGAUAUACAUAUUAUUUAAUAUCCUCAUUAAUACAUGAGGAUCACCCAUGUAGAAGGAGCAAUAG [Mat - Exclusion 2 - Mod of Hog - D90] (puzzle: Exclusion 2)
apparent KD of MS2 coat protein [2]: 108 nM

GAUACACAUGAGGAUCACCCAUGUGAGGAUAUGCGUACGUUGUCCGUAGGCGACGUGCGCAGAAGGCGCGUGAG [Mat - Mod of JL D88] (puzzle: Exclusion 1)
apparent KD of MS2 coat protein [2]: 46.4 nM

GAUACCUCAGUGAGGAUAUUUUAUAGAUUAACCAGGAAGAAGGCACAUGAGGAUCACCCAUGUCCACGGCAGCC [Eternabot (L1) Solution 10] (Eterna round: R97, puzzle: Brourd's mod of Exclusion 4)
apparent KD of MS2 coat protein (input ligand: FMN 200 uM): 23.2 nM | apparent KD of MS2 coat protein (input ligand: none): 20.9 nM

GAUAGAGAGCAGGAUAUCUUGGGUUAGUAUCGUAGAGAAGGGCUCACAUGAGGAUCACCCAUGUGGUCCAAGAU [JL Dibiri mod 02] (puzzle: Exclusion 6)
apparent KD of MS2 coat protein [1]: 36.5 nM | apparent KD of MS2 coat protein [2]: 15.1 nM | apparent KD of MS2 coat protein [3]: 13.3 nM

GAUAUCUCAGGAUAUACAUGCCCUCCGAAACGGAGUCAUGAACAUGAGGAUCACCCAUGUAGAAGGGAGAUAUC [Alacar 2] (Eterna round: R97, puzzle: Exclusion 2)
apparent KD of MS2 coat protein (input ligand: FMN 200 uM): 25.5 nM | apparent KD of MS2 coat protein (input ligand: none): 15.8 nM

GAUAUGGGAGUUAGGAUAUGUCGCCCGAACGGGUAAUAGAAGGGACUUGAGGAUCACCCAAGUCAUAAAGAAUA [Rainan] (Eterna round: R97, puzzle: Brourd's mod of Exclusion 4)
apparent KD of MS2 coat protein (input ligand: FMN 200 uM): 11.6 nM | apparent KD of MS2 coat protein (input ligand: none): 14.6 nM

GAUAUGGUGGAGGAUAUCAUUUUGGAACCAAAGUGAGAAGGCUAAACAUGAGGAUCACCCAUGUGAAGCAAGGG [Eternabot (Original) Solution 41] (Eterna round: R97, puzzle: Exclusion 6)
apparent KD of MS2 coat protein (input ligand: FMN 200 uM): 23.3 nM | apparent KD of MS2 coat protein (input ligand: none): 20.4 nM

GAUCAACAUGAGGAUCACCCAUGUGAGGAUAUGCGAGAAUAGACUUCGGUCAGAUAGAGCAGAAGGCGCAGAUA [EX1 #3] (Eterna round: R97, puzzle: Exclusion 1)
apparent KD of MS2 coat protein (input ligand: FMN 200 uM): 63.7 nM | apparent KD of MS2 coat protein (input ligand: none): 37.9 nM

GAUCAUGCAGGAUAUACAGUAACCAUGAAAACAUGGUUGUAACAUGAGGAUCACCCAUGUAGAAGGGCAUGAUC [Omei Ex2 A4] (Eterna round: R97, puzzle: Exclusion 2)
apparent KD of MS2 coat protein (input ligand: FMN 200 uM): 23.5 nM | apparent KD of MS2 coat protein (input ligand: none): 15.4 nM
